The text below walks through data of publication PMC9208311.

The target in the assay is zebrafish procaspase-3b (CP-C117S) (zebrafish (Danio rerio)). Briefly: SEC; Superdex75 Increase 10/300GL, 25 uM protein, 100 ul loaded, dialysed ~16 h at 25°C; citrate buffer pH 5, 6 and 6.5, phosphate buffer pH 7.5 and 8; column standardised with LMW calibration kit.

One may read the stoichiometry N as the number of molecules, sites or subunits per partner or assembly. Consider “zebrafish procaspase-3b (CP-C117S) (enzyme)”, for which the stoichiometry N was 2.
